In PMC12828022 (Nature Communications, 2025):
Where a chain is given by its changes, count along the chain named. Numbers in names are those of the source. Each block holds one binder with its values, some of them ahead of it.

Tests used:
[1] = biological target: T1, ACT1 residues 372-574 (wild type) (human, UniProt O43734-1 372-574); test: SEC
T1 sequence: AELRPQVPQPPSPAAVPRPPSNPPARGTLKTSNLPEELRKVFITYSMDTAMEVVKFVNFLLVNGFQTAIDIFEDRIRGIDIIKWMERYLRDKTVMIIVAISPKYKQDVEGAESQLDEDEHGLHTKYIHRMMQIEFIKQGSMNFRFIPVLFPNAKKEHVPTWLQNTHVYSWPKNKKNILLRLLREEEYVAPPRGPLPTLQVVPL

[2] = biological target: T1, ACT1 residues 372-574 (wild type); test: negative-stain EM
[3] = biological target: T2, IL-17RA residues 361-866 (SEFIR domain and SEFEX, as part of the IL-17RB-RA fusion) (human, UniProt Q96F46-1 361-866); test: cryo-EM structure
T2 sequence: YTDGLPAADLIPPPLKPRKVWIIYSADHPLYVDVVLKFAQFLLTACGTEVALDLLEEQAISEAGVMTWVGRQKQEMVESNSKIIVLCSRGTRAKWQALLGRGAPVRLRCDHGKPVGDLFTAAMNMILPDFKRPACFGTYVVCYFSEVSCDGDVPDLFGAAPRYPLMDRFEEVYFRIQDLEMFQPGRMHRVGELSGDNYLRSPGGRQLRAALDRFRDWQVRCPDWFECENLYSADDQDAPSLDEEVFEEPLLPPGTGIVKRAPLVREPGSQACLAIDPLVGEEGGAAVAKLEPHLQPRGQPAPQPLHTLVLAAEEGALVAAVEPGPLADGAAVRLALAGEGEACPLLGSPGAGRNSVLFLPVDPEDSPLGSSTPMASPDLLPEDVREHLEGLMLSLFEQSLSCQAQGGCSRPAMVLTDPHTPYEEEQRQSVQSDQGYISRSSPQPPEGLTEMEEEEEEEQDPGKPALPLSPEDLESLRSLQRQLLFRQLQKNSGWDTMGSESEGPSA

binding result [1]: binds
B1: IL-17RB-RA fusion (IL-17RB residues 328-484, 16-residue linker, IL-17RA residues 361-866) (other)
chain: LLPPIKVLVVYPSEICFHHTICYFTEFLQNHCRSEVILEKWQKKKIAEMGPVQWLATQKKAADKVVFLLSNDVNSVCDGTCGKSEGSPSENSQDLFPLAFNLFCSDLRSQIHLHKYVVVYFREIDTKDDYNALSVCPKYHLMKDATAFCAELLHVKQGGGSGGGSGGGSGGGSYTDGLPAADLIPPPLKPRKVWIIYSADHPLYVDVVLKFAQFLLTACGTEVALDLLEEQAISEAGVMTWVGRQKQEMVESNSKIIVLCSRGTRAKWQALLGRGAPVRLRCDHGKPVGDLFTAAMNMILPDFKRPACFGTYVVCYFSEVSCDGDVPDLFGAAPRYPLMDRFEEVYFRIQDLEMFQPGRMHRVGELSGDNYLRSPGGRQLRAALDRFRDWQVRCPDWFECENLYSADDQDAPSLDEEVFEEPLLPPGTGIVKRAPLVREPGSQACLAIDPLVGEEGGAAVAKLEPHLQPRGQPAPQPLHTLVLAAEEGALVAAVEPGPLADGAAVRLALAGEGEACPLLGSPGAGRNSVLFLPVDPEDSPLGSSTPMASPDLLPEDVREHLEGLMLSLFEQSLSCQAQGGCSRPAMVLTDPHTPYEEEQRQSVQSDQGYISRSSPQPPEGLTEMEEEEEEEQDPGKPALPLSPEDLESLRSLQRQLLFRQLQKNSGWDTMGSESEGPSA

binding result [2]: binds
B2: IL-17RC-RA fusion (IL-17RC residues 510-705, 3x(GGGS) linker, IL-17RA residues 361-866) (other)
chain: ARGRAALLLYSADDSGFERLVGALASALCQLPLRVAVDLWSRRELSAQGPVAWFHAQRRQTLQEGGVVVLLFSPGAVALCSEWLQDGVSGPGAHGPHDAFRASLSCVLPDFLQGRAPGSYVGACFDRLLHPDAVPALFRTVPVFTLPSQLPDFLGALQQPRAPRSGRLQERAEQVSRALQPALDSYFHPPGTPAPGGGGSGGGSGGGSYTDGLPAADLIPPPLKPRKVWIIYSADHPLYVDVVLKFAQFLLTACGTEVALDLLEEQAISEAGVMTWVGRQKQEMVESNSKIIVLCSRGTRAKWQALLGRGAPVRLRCDHGKPVGDLFTAAMNMILPDFKRPACFGTYVVCYFSEVSCDGDVPDLFGAAPRYPLMDRFEEVYFRIQDLEMFQPGRMHRVGELSGDNYLRSPGGRQLRAALDRFRDWQVRCPDWFECENLYSADDQDAPSLDEEVFEEPLLPPGTGIVKRAPLVREPGSQACLAIDPLVGEEGGAAVAKLEPHLQPRGQPAPQPLHTLVLAAEEGALVAAVEPGPLADGAAVRLALAGEGEACPLLGSPGAGRNSVLFLPVDPEDSPLGSSTPMASPDLLPEDVREHLEGLMLSLFEQSLSCQAQGGCSRPAMVLTDPHTPYEEEQRQSVQSDQGYISRSSPQPPEGLTEMEEEEEEEQDPGKPALPLSPEDLESLRSLQRQLLFRQLQKNSGWDTMGSESEGPSA

binding result [3]: binds
B3: IL-17RB residues 328-484 (SEFIR domain, as part of the IL-17RB-RA fusion) (domain or fragment)
chain: LLPPIKVLVVYPSEICFHHTICYFTEFLQNHCRSEVILEKWQKKKIAEMGPVQWLATQKKAADKVVFLLSNDVNSVCDGTCGKSEGSPSENSQDLFPLAFNLFCSDLRSQIHLHKYVVVYFREIDTKDDYNALSVCPKYHLMKDATAFCAELLHVKQ

binding result [3]: binds
B4: ACT1 residues 372-574 Y558F (domain or fragment)
chain: T1 sequence with Y187F
